{
  "source": "patent US20250137008A1",
  "about": "(UNIVERSITY OF GLASGOW, published 2025)",
  "binders": {"B1": {"name": "full-length GORK channel (GORK-Cub bait fusion) (other)", "chain": "MGRLRRRQEIIDHEEEESNDDVSSRRGKLSLAETFRWLDSSEHRRIETDGHNDYKYIIHPKNRWYKAWEMFILVWAIYSSLFTPMEFGFFRGLPERLFVLDIVGQIAFLVDIVLQFFVAYRDTQSYRTVYKPTRIAFRYLKSHFLMDFIGCFPWDLIYKASGKHELVRYLLWIRLFRVRKVVEFFQRLEKDTRINYLFTRILKLLFVEVYCTHTAACIFYYLATTLPPEQEGYTWIGSLKLGDYSYENFREIDLWKRYTTALYFAIVTMATVGYGDIHAVNLREMIFVMIYVSFDMVLGAYLIGNVTALIVKGSNTERFRDKMNDLISFMNRKKLGRDLRSQITGHVRLQYDSHYTDTVMLQDIPASIRAKIAQLLYLPYIKKVPLFKGCSTEFINQIVIRLHEEYFLPGEVITEQGNVVDHLYFVCEGLLEALVTKTDGSEESVTLLGPHTSFGDISIICNISQPFTVRVCELCHLLRLDKQSFSNILEIYFHDGRTILNNIMEEKESNDRIKKLESDIVIHIGKQEAELALKVNSAAFQGDFYQLKSLIRSGADPNKTDYDGRSPLHLAACRGYEDITLFLIQEGVDVNLKDKFGHTPLFEAVKAGQEGVIGLLVKEGASFNLEDSGNFLCTTVAKGDSDFLKRLLSSGMNPNSEDYDHRTPLHVAASEGLFLMAKMLVEAGASVISKDRWGNSPLDEARLCGNKKLIKLLEDVKNAQSSIYPSSLRELQEERIERRKCTVFPFHPQEAKEERSRKHGVVVWVPSNLEKLIVTAAKELGLSDGASFVLLSEDQGRITDIDMISDGHKLYMISDTTDQT", "notes": "Full-length channel expressed in yeast as a Cub bait fusion (mbSUS) and in vivo as an rBiFC partner; also called full-length GORK channel Y-Cub fusion; Guard cell Outward Rectifying Potassium (K+) channel"}, "B2": {"name": "gVSD^NP (other)", "chain": "MGRLRRRQEIIDHEEEESNDDVSSRRGKLSLAKTFRWLKSSKKRRIKTKGKNKYKYIIKPKNRWYKAWEMFILVWAIYSSLFTPMEFGFFRGLPERLFVLDIVGQIAFLVDIVLQFFVAYRDTQTYRTVYKPTRIAFRYLKSHFLMDFIGCFPWDLIYKASGKHELVRYLLWIRLFRVRKVVEFFQRLEKDTRINYLFTRILK", "notes": "All negatively-charged amino acids (Asp, Glu) of the N-terminal charged domains replaced with Lys"}, "B3": {"name": "gVSD^PN (other)", "chain": "MGRLRRRQEIIDHEEEESNDDVSSDDGDLSLAETFDWLDSSEDDDIETDGDNDYDYIIDPKNRWYKAWEMFILVWAIYSSLFTPMEFGFFRGLPERLFVLDIVGQIAFLVDIVLQFFVAYRDTQTYRTVYKPTRIAFRYLKSHFLMDFIGCFPWDLIYKASGKHELVRYLLWIRLFRVRKVVEFFQRLEKDTRINYLFTRILK", "notes": "All positively-charged residues of the N-terminal charged domains replaced with negatively-charged residues"}, "B4": {"name": "kVSD N-terminus (soluble) (other, UniProt Q39128 1-63, looked up)", "chain": "MSISWTRNFFERFCVEEYNIDTIKQSSFLSADLLPSLGARINQSTKLRKHIISPFNPRYRAWE", "notes": "domain: cytosolic N-terminus; Gel filtration construct; also called kVSD N-termini; KAT1 N-terminus"}, "B5": {"name": "gVSD^NP N-terminus (soluble) (other)", "chain": "MGRLRRRQEIIDHEEEESNDDVSSRRGKLSLAKTFRWLKSSKKRRIKTKGKNKYKYIIKPKNRWYKAWE", "notes": "also called gVSDNP N-termini"}},
  "key": {"[1]": {"molecular_target": "T1, KAT1 voltage sensor domain (kVSD) (UniProt Q39128 1-200, limits assumed)", "T1 construct": "domain: voltage sensor domain (VSD); Nub-X prey in mbSUS; rBiFC partner; also called KAT1 VSD; VSD of KAT1", "T1 sequence (looked up)": "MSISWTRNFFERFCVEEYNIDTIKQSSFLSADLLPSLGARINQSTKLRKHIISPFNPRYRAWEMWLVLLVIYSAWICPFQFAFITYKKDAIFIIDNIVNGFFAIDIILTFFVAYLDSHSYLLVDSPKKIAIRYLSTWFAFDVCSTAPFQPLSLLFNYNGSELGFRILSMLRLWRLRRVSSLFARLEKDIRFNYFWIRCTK", "assay": "mbSUS, GORK-Cub bait"}, "[2]": {"molecular_target": "T2, full-length KAT1 (UniProt Q39128 1-677, limits assumed)", "T2 construct": "whole, on cells; Nub-X prey in mbSUS in yeast", "assay": "mbSUS, GORK-Cub bait"}, "[3]": {"molecular_target": "B1", "assay": "rBiFC in vivo, confocal imaging"}, "[4]": {"molecular_target": "B1", "assay": "mbSUS, GORK-Cub bait"}, "[5]": {"molecular_target": "the molecule itself", "assay": "gel filtration of soluble N-termini (self-association)"}},
  "data": [
    {"binder": "B1", "values": [
      {"measurement": "binding result", "setting": "[1]", "value": "no binding"},
      {"measurement": "binding result", "setting": "[2]", "value": "no binding"}
    ]},
    {"binder": "B2", "values": [
      {"measurement": "binding result", "setting": "[3]", "value": "no binding"}
    ]},
    {"binder": "B3", "values": [
      {"measurement": "binding result", "setting": "[4]", "value": "no binding"}
    ]},
    {"binder": "B4", "values": [
      {"measurement": "binding result", "setting": "[5]", "value": "no binding"}
    ]},
    {"binder": "B5", "values": [
      {"measurement": "binding result", "setting": "[5]", "value": "no binding"}
    ]}
  ]
}
